Experimental data: the DeepSol protein solubility set

Test: soluble on expression in E. coli; label from the status in PepcDB or PDB records
In the case of “TKNWKWEMNFNIAKNSNKLVELADGVDSYSIYWTSFTTRLYNYAMVGKSLGVITGNTWERDDNGNIIFHELSASQKALYGGEYVPTYNQNTLDELGNFHPDFTGGFNTSISFKNFRLSANIDFSVGGQIVSYTNMWGSSSGILDKTAELNDRGVNVREPVSKGGGIHMTGVDQNGNKVDTYVNAKLYYTTASRVWEEWVYDRTYVKLREVSLSYVFPSQTLKKLNIGLSRASVAINASNPWLIYSACPNVDVSEIGMGYFEGGNAAATRSIGFTVNLAF”, the “soluble on expression in E. coli” value is reported as “not soluble”. With “MDLSTIKVFEQKLELHREMPMKVVKKELHFSTKGEIDLVDITREVELFVAESGISKGQVLIFVPGATGAVVAIEHEEGLLEDFKKILKEIVPKEKPYLHNRFDDNAHSHIRATLLGPSLVFPIVDGELVRGTWQQIFFVELDTRPRKRRILLQAIGE” the “soluble on expression in E. coli” value was “soluble”. For “MSLRVTLREVAQEAGVSLKTASNVINHSGRMADATREKVQDVIDRLGYRVNVSARNLNRGKTGFITLAVPSLTAPYLAELANRVIDAARIYGYSVYITTYAEGSAQGARALLRNFNATVSDGMILSISEVEDLDPEDLDVDYPLVCVGARSTHGKADHVTPDDVQEARLAAQYLFDHGATNLAVIGSRTDPEHILELRDAVEGNAQLRMRGIFEACADQGVELDTRLVPNVGQDWTIGSGARMTQRIVDSGIPFDGIVAFNDQLALGALFTLAANGIAVPDRVQVIGFDNNEEAAYFQPPLTTMDSCLDWIAPTAVSRIINRIDGSRTLEPELITTQSRIIARATTRAEGHHHHHH”, the “soluble on expression in E. coli” value was “soluble”. In the case of “MSLNETKQFIKRHLFSARWLVRNLQQRYSTIERIAEFLAVNQYEFFTQPDGQLKPLTMKTIADALELHESTIARTVSNKYINSPKGIFSLRSFFTTKYTSEEGEDLSAKTVKEAILEIISGENKLRPFSDEKISEFLKSKGITCARRTVAKYRQALDLGNTQQRKKFHQSEGHHHHHH”, the “soluble on expression in E. coli” value is reported as “soluble”. In the case of “MRPSGRMENKKQSKGASRGSRRRSINTSNSNTSARHAFSPCSYSSSGTEIRKVAISVSSNSTTELPCAQSPNVGSRTSDSHQLTLGSDLRSEPNNLNIAATLAEPNIAEHFKGVLTKKEAANLTRRDDFTMYYRVVKDQAKVELETTIPLFICYRNSENKVFSFRVEQVLTENNSMWWTVMINKQHTQMFRRLLDLVRCYHSYRFINPETRSQEMFPIWKYTNQASMNP”, the “soluble on expression in E. coli” value is reported as “not soluble”. In the case of “MGSDKIHHHHHHMISAEQLVFTYHDQKNPACQISTCQIASGQFIVLCGPSGSGKSTFLKLLNGIIPDYYAGKYEGRLDVADCQAGRDSVETFSRSVASVFQNPASQFFYREVQHELVFPCENQGLDAKVIMKRLWTLAEDFAFAELLNKDMFGLSGGQKQRVAIATAIMQGTNIMLFDEPTANLDSAGIAAVKAYLTQLKAAGKTIIVAEHRLHYLMDLADNFFYFKNGRLTDKLTTQNLLALTDEQRQDMGLRRLDLSDLKPVLAGKIESQHYRPDDSLCIEHLTVRAGSKILRCIEQLSFAVGSISGITGSNGLGKSQLVYYIAGILDDKKATIKFQGIPLSAKQRLSKTSIVLQEVSLQLFAESVSKEVNLGHERHPRTTEVIERLSLTTLLERHPASLSGGEQQRVMIAASLLADKDILIFDEPSSGLDLLQMKALANLLMQLKTQHKVVILISHDEELLSSVCDTIYQMLP”, the “soluble on expression in E. coli” value is reported as “not soluble”. For “MIELYSNAKLPTEFGLFRIYTFVNDENKDHAVIVRGDPRGKENVPLRIHSECLTGDVLGSLRCDCRDQLIQSLRYLGRQEYGMLIYLRQEGRGIGLLNKIKAYSLQDMGADTVEANLKLGLPVDSRNYSFAAEVLRYFEIKSIYIMTNNPEKIKSLIESGINVKGRIPIFSDPTPYDKFYLETKKTKLGHEIENILEHHHHHH”, the “soluble on expression in E. coli” value was “soluble”. With “MKLTLKNLSMAIMMSTIVMGSSAMAADSNEKIVIAHRGASGYLPEHTLPAKAMAYAQGADYLEQDLVMTKDDNLVVLHDHYLDRVTDVADRFPDRARKDGRYYAIDFTLDEIKSLKFTEGFDIENGKKVQTYPGRFPMGKSDFRVHTFEEEIEFVQGLNHSTGKNIGIYPEIKAPWFHHQEGKDIAAKTLEVLKKYGYTGKDDKVYLQCFDADELKRIKNELEPKMGMELNLVQLIAYTDWNETQQKQPDGSWVNYNYDWMFKPGAMKQVAEYADGIGPDYHMLIEETSQPGNIKLTGMVQDAQQNKLVVHPYTVRSDKLPEYTPDVNQLYDALYNKAGVNGLFTDFPDKAVKFLNKE” the “soluble on expression in E. coli” value was “soluble”. In the case of “MSLQPNDITFFQRFQNDILAGRKTITIRDASESHFKAGDVLRVGRFEDDGYFCTIEVTGTSTVTLDTLNEKHAQQENMSLDELKRVIAEIYPNQTQFYVIDFKCLEGHHHHHH”, the “soluble on expression in E. coli” value is reported as “soluble”. With “MDYKSKTANDKEISIYYFSATGNSLKLSQDIAAAFGGAGLFRMTPSAGITASDSRIVGFIFPVYMGGLPGIVRRFLESYPFRKGVYYFSIGTYYTYKGCAVSVVDKIMSGKGVRLDYGYNLPTVGNCLKEYEVSSVRRTKILERAELYTSRIIDDLKKGKRKKPFPYCRLSDLLHKGLFNAFFSRSHLNFSLENGCMGCGVCERVCPVNNITLKNGVPRWGTGCEACHACVHWCPRNVIQIGKSKGRLQYHHPAVKRTMLYRVELEHHHHHH” the “soluble on expression in E. coli” value was “not soluble”. For “SMPDEVPLDEQCERLPYDASKWEFARERLKLGKSLGRGAFGKVVQASAFGIKKSPTCRTVAVKMLKEGATASEYKALMTELKILTHIGHHLNVVNLLGACTKQGGPLMVIVEYCKYGNLSNYLKSKRDLFFLNKDAALHMEPKKEKMEPGLEQGKKPRLDSVTSSESFASSGFQEDKSLSDVEEEEDSDGFYKEPITMEDLISYSFQVARGMEFLSSRKCIHRDLAARNILLSENNVVKICDFGLARDIYKNPDYVRKGDTRLPLKWMAPESIFDKIYSTKSDVWSYGVLLWEIFSLGGSPYPGVQMDEDFCSRLREGMRMRAPEYSTPEIYQIMLDCWHRDPKERPRFAELVEKLGDLL”, the “soluble on expression in E. coli” value was “soluble”. For “MAHHHHHHHRSAAGTIWEFDGGACGARTALVKVDRVDRRYQDLVTRGFNGRFRGRPDVVYVVHTADQVVDAVNQAMAAGQRIAVRSGGHCFEGFVDDPAVRAVIDMSQMRQVFYDSGKRAFAVEPGATLGETYRALYLDWGVTIPAGVCPQVGVGGHVLGGGYGPLSRRDGVVADHLYAVEVVVVDASGRARKVVATSAADDPNRELWWAHTGGGGGNFGIVTRYWFRTPGATGTDPSQLLPKAPTSTLRHIVTWDWSALTEEAFTRIIDNHGAWHQSNSAAGTPYASMHSVFYLNSRAAGQILLDIQIDGGLDGAEALLNDFVAAVNEGTGVEPAVQRSTEPWLRATLANKFDTGGFDRTKSKGAYLRKPWTAAQAATLYRHLSADSQVWGEVSLYSYGGKVNSVPETATATAQRDSIIKVWMSATWMDPAHDDANLAWIREIYREIFATTGGVPVPDDRTEGTFINYPDVDLVDERWNTSGVPWYTLYYKGNYPRLQKVKARWDPRDVFRHALSVRPPG”, the “soluble on expression in E. coli” value was “soluble”. For “MSDKKVFILSGARTPIGAYRGSFANFGAVELGTVAAKAAIERSGVAPEKIEEVIGGCVLPAGLGQNVTRQISLSAGLPVTTQAVTVNKVCSSSMKALVTAAVEIKAGYYDTILVVGTENMSQVPFYVPRGEIPFGGIQMTDGISKDGLEDIKEKGPMGLCAEKTVKDYGITREEQDAYAIESYKKASNAWSSEKFSEEVVPVSVKTSRSEVVITEDEEYKKLIESKVSSLKPVFVRDGTGTITPANASSLNDGAVATVVVGENALPQGAHPLAELVAFAEAGRAPIDFTVAPVDAVRLLLKKSGLQVSDIALWELNEAFAVTVLAFIKELNIEPSVVNVKGGAVAIGHPLGMSGLRIVNSLAYSLAPGQLGVAAICNGGGEATAVLIKKL”, the “soluble on expression in E. coli” value was “not soluble”. With “MSCPVIELTQQLIRRPSLSPDDAGCQALLIERLQAIGFTVERMDFADTQNFWAWRGQGETLAFAGHTDVVPPGDADRWINPPFEPTIRDGMLFGRGAADMKGSLAAMVVAAERFVAQHPNHTGRLAFLITSDEEASAHNGTVKVVEALMARNERLDYCLVGEPSSIEVVGDVVKNGRRGSLTCNLTIHGVQGHVAYPHLADNPVHRAAPFLNELVAIEWDQGNEFFPATSMQIANIQAGTGSNNVIPGELFVQFNFRFSTELTDEMIKAQVLALLEKHQLRYTVDWWLSGQPFLTARGKLVDAVVNAVEHYNEIKPQLLTTGGTSDGRFIARMGAQVVELGPVNATIHKINECVNAADLQLLARMYQRIMEQLVA” the “soluble on expression in E. coli” value was “soluble”. For “MVDNLIKYIHKSDVAIVVLHEIYGINSFIEDVCQKYYKYGYDVFCPELLGEKRVFPYSKVQEAYDFFINNVGFDIYKKVEKLINDLKSEYKYVFVAGYSVGATIAWRCSEDSFCDGIICCYGSRIRDYMDVIPKCPTLLVFAKHDSFDVDSISCQLSRKQNIQIEILDANHGFIDRYSNNYSDIQTKVFTIKEKSFLSKCLA”, the “soluble on expression in E. coli” value was “not soluble”. With “SLPMQHVHTSPVRDYRNRCARREGETVFQVVVEETDLRVTALAELATPMAAYVGELRAQLKVWMEFQPAFRHSLVPVEVPEGAPEVVRRMAHGARLVGVGPFAAVAGTIAQMVAERFVDVSPELIVENGGDLYLYSERDRVVGILPDPASGDMVGILVRAGTAPVSLCGSSARIGHSLSLGDGDLAVVRARDASLADAAATAFGNMLRRADDVAAVTERAAQLASIGIEGVYAQCGGRIGIWGDMELAVA” the “soluble on expression in E. coli” value was “soluble”. For “MSSSVLSVAKFDLKKMKTVYLKVDMEYDNRKNAALAILSKLSRDLLKICSNFGGCLARPQRDLCTIMLIIDSDKLENEHLVKHLKEHHMTAFEYIFTKKIKIQIGECFVQDGFLWWKQTNLPRIRNLKFRKKFKIKNKISEIHTHCSSEGNVYIKFSAEMIRIHPFDHWILDSDERFHDFNSGPISRRIRPRWVSCLPKLGKGRIVKIHRKIPETAPFESYDQMKSYWKKTKYEFVFQYGYDLPPSEPEVYYDVLFHNGETMLYPLYCVLTGTPEVLENRVGKTMTSEALALFLKAFKEASIVICGSVLAPEDQDCQAVKAYLDVMSMSAINSSKLKKEEKVTRKSSGGGHEEHQKPYEIRKIYPKIPVGVKRSISSSSQSGLPIVKKARPGFSVSVD”, the “soluble on expression in E. coli” value was “not soluble”. In the case of “MEKQYRVLLYYKYVPIEDPEAFREQHLAFCKELGLLGRILVSSEGINGTVSGTVEQTEKYMETMKADPRFADMVFKIDEAEGHAFKKIFVRHKKELVTLRLEDDVDPNETTGQHLKPAEFYEKMQDPNTIVIDARNDYEYDLGHFRGAVRPDIEAFRELPEWIEEHKDMLEGKKILTYCTGGVRCEKFSGWLVKQGFEDVAQLDGGIVTYGKDPEVQGKLWDGQCYVFDERISVPVNRVEHVIVGKDYFTGEPCERYVNCANPSCNKKMICTPENEYKYMRSCSHECRTNPRNLYVKEHNMTEEEVNARLAAIETEDHAAAE”, the “soluble on expression in E. coli” value is reported as “not soluble”. With “SNAMKMSELEKMLKGEHFDGASAEIEALRSQAGRLKLEINQSLDEAERYALQRELFGHLGHKSCVQPPFHCEFGKTIRIGDHTFINMNVVMLDGAPITIGDHVLIGPSTQFYTASHSLDYRRRQAWETICKPIVIEDDVWIGGNVVINQGVTIGARSVVAANSVVNQDVPPDTLVGGTPARILRSLKDPAESMAE” the “soluble on expression in E. coli” value was “soluble”. With “KAEMRHMENKVLESELRQRAVVEASLLETQGRLLEQLESAPEAIICLREDQRIRFANEAACKLFKRSLEQLKRS” the “soluble on expression in E. coli” value was “not soluble”. In the case of “MGSSHHHHHHSSGLVPRGSHMDTTVPTFSLAELQQGLHQDEFRRCLRDKGLFYLTDCGLTDTELKSAKDLVIDFFEHGSEAEKRAVTSPVPTMRRGFTGLESESTAQITNTGSYSDYSMCYSMGTADNLFPSGDFERIWTQYFDRQYTASRAVAREVLRATGTEPDGGVEAFLDCEPLLRFRYFPQVPEHRSAEEQPLRMAPHYDLSMVTLIQQTPCANGFVSLQAEVGGAFTDLPYRPDAVLVFCGAIATLVTGGQVKAPRHHVAAPRRDQIAGSSRTSSVFFLRPNADFTFSVPLARECGFDVSLDGETATFQDWIGGNYVNIRRTSKA”, the “soluble on expression in E. coli” value is reported as “soluble”.
